Experimental data reported in the supplement of paper PMC6757056.
± gives the standard deviation of the averaged measurements.

B1: library; a variant is named by its letters at N, in order (parent)
chain: GCUGUCACCGGUGUAUUACCCUAGUGGUCGACCGGUCUGAUGAGUCUNNNNNNAGACGAAACAGC

Assays:
hypoxanthine [1] = variants of: B1; test: FACS-Seq fitted mean relative fluorescence mCherry/BFP without ligand (log10 relative fluorescence); ligand: hypoxanthine (xanthine aptamer); higher = higher reporter protein expression; conditions: HEK293T, ligand present: no
Outline: (§1)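 Lentivirally transduced HEK293T libraries carried an mCherry reporter with the ribozyme switch and an EF1α-BFP marker. Transduced cells were enriched, then incubated with or without ligand for 48 h and sorted into 6 bins by mCherry/BFP. Genomic DNA from each bin was PCR-amplified, barcoded and sequenced on MiSeq. Fluorescence was the fitted normal mean of log10(mCherry/BFP) bin counts, scaled to five spiked-in control ribozymes.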

hypoxanthine [2] = variants of: B1; test: normalized RNA/DNA level with ligand (relative to sTRSVctl = 100) (log10 (% of sTRSVctl)); ligand: hypoxanthine (xanthine aptamer); higher = less ribozyme self-cleavage, higher mRNA level; conditions: ligand concentration (+) RNA-Seq: 5 mM, HEK293T, reporter: mCherry (pCS4076), ligand present: yes
Outline: (§2)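 HEK293T cells were transfected with library plasmids carrying ribozyme switches linked to an mCherry reporter, or an eGFP reporter in some ligand experiments, at 4 µg per well of a 6-well plate, with any ligand added 1 h beforehand. After 72 h, total RNA was extracted with EDTA, reverse-transcribed, amplified, barcoded and sequenced. RNA level was defined as RNA reads over DNA reads, normalized to a spiked-in non-cleaving sequence or to the top-ranked sequences. That value was multiplied by 100 and converted to log10, the top set was 25 sequences, and only sequences with ≥100 DNA reads were retained.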

hypoxanthine [3] = variants of: B1; test: normalized RNA/DNA level without ligand (relative to sTRSVctl = 100) (log10 (% of sTRSVctl)); ligand: hypoxanthine (xanthine aptamer); higher = less ribozyme self-cleavage, higher mRNA level; conditions: HEK293T, reporter: mCherry (pCS4076), ligand present: no
Outline: as §2

hypoxanthine [4] = variants of: B1; test: FACS-Seq fitted mean relative fluorescence mCherry/BFP with ligand (log10 relative fluorescence); ligand: hypoxanthine (xanthine aptamer); ligand concentration (+) FACS-Seq: 5 mM; higher = higher reporter protein expression; conditions: HEK293T, ligand present: yes
Outline: as §1

| Variant | FACS-Seq fitted mean (log10) (hypoxanthine [1]) | normalized RNA/DNA level with ligand (log10) (hypoxanthine [2]) | normalized RNA/DNA level without ligand (log10) (hypoxanthine [3]) | FACS-Seq fitted mean (log10) (hypoxanthine [4]) |
| --- | --- | --- | --- | --- |
| AUAAGC | 0.474 ± 0.0089 | 1.918 ± 0.014 | 1.786 ± 0.01 | 0.6615 ± 0.0049 |
| AUAAGU | 0.122 ± 0.094 | 1.852 ± 0.0077 | 1.629 ± 0.011 | 0.279 ± 0.058 |
| AUAAGA | 0.457 ± 0.047 | 1.9 ± 0.045 | 1.715 ± 0.0051 | 0.556 ± 0.068 |
| AUAUGG | -0.462 ± 0.062 | 1.802 ± 0.0067 | 1.374 ± 0.0022 | -0.111 ± 0.04 |
| AUAUGU | 0.416 ± 0.0064 | 1.886 ± 0.0057 | 1.68 ± 0.054 | 0.511 ± 0.015 |
| AUAUGA | 0.609 ± 0.0086 | 1.924 ± 0.0023 | 1.7 ± 0.02 | 0.758 ± 0.018 |
| CGUUGG | 0.31411 ± 0.00021 | 1.966 ± 0.0055 | 1.413 ± 0.0094 | 0.58 ± 0.022 |
| UUAUAC | 0.396 ± 0.054 | 1.908 ± 0.015 | 1.827 ± 0.0035 | 0.632 ± 0.0036 |
| AGUUAA | 0.799 ± 0.015 | 1.92 ± 0.04 | 1.76 ± 0.032 | 0.802 ± 0.094 |
| AGUUAG | 0.335 ± 0.052 | 1.8 ± 0.054 | 1.44 ± 0.078 | 0.569 ± 0.019 |
| AGUUAC | 0.497 ± 0.083 | 1.89 ± 0.011 | 1.775 ± 0.016 | 0.655 ± 0.14 |
| CUAGGA | 0.7992 ± 0.0063 | 1.938 ± 0.0084 | 1.859 ± 0.018 | 0.697 ± 0.022 |
| CUAGGG | 0.0497 ± 0.042 | 1.89 ± 0.035 | 1.53 ± 0.028 | 0.294 ± 0.039 |
| GUCAAG | 0.65 ± 0.074 | 1.85 ± 0.077 | 1.46 ± 0.07 | 0.667 ± 0.011 |
| GUCAAA | 0.456 ± 0.0096 | 1.91 ± 0.047 | 1.733 ± 0.0061 | 0.532 ± 0.0073 |
| AUAUAC | 0.568 ± 0.087 | 1.88 ± 0.019 | 1.8 ± 0.069 | 0.572 ± 0.028 |
| AUAUAG | 0.389 ± 0.046 | 1.83 ± 0.03 | 1.54 ± 0.057 | 0.611 ± 0.076 |
| AUAUAA | 0.487 ± 0.056 | 1.883 ± 0.015 | 1.77 ± 0.027 | 0.6452 ± 0.0064 |

| Variant | FACS-Seq fitted mean (log10) (hypoxanthine [1]) | normalized RNA/DNA level with ligand (log10) (hypoxanthine [2]) | normalized RNA/DNA level without ligand (log10) (hypoxanthine [3]) | FACS-Seq fitted mean (log10) (hypoxanthine [4]) |
| --- | --- | --- | --- | --- |
| AUAAAG | 0.43 ± 0.03 | 1.87 ± 0.024 | 1.51 ± 0.053 | 0.678 ± 0.081 |
| AUAAAU | 0.431 ± 0.027 | 1.9 ± 0.035 | 1.7593 ± 0.00014 | 0.576 ± 0.017 |
| AUAAAC | 0.413 ± 0.047 | 1.893 ± 0.0082 | 1.81 ± 0.023 | 0.517 ± 0.15 |
| CUAUGG | 0.518 ± 0.013 | 1.888 ± 0.00026 | 1.6 ± 0.027 | 0.234 ± 0.17 |
| AUAUUG | 0.2149 ± 0.0019 | 1.87 ± 0.053 | 1.53 ± 0.075 | 0.486 ± 0.011 |
| AUAUUC | 0.242 ± 0.014 | 1.92 ± 0.042 | 1.88 ± 0.051 | 0.166 ± 0.071 |
| AGUUCA | 0.179 ± 0.0096 | 1.91 ± 0.034 | 1.802 ± 0.0084 | 0.4165 ± 0.0023 |
| GUAUUG | -0.148 ± 0.011 | 1.882 ± 0.011 | 1.45 ± 0.1 | 0.209 ± 0.0066 |
| AUAGAA | 0.429 ± 0.005 | 1.87 ± 0.089 | 1.705 ± 0.0096 | 0.6216 ± 0.0039 |
| AUAGAC | 0.72 ± 0.12 | 1.88 ± 0.035 | 1.8 ± 0.018 | 0.755 ± 0.051 |
| GUAUAC | 0.143 ± 0.058 | 1.94 ± 0.067 | 1.82 ± 0.067 | 0.251 ± 0.093 |
| GUAUAG | -0.0857 ± 0.034 | 1.854 ± 0.0081 | 1.44 ± 0.065 | 0.479 ± 0.013 |
| GUAUAU | -0.558 ± 0.056 | 1.84 ± 0.024 | 1.8 ± 0.041 | -0.474 ± 0.016 |
| UUCACA | 0.502 ± 0.065 | 1.9 ± 0.051 | 1.88 ± 0.05 | 0.58 ± 0.026 |
| GGUGUG | -0.123 ± 0.13 | 1.783 ± 0.013 | 1.29 ± 0.051 | 0.24 ± 0.004 |
| GGUGUA | 0.31 ± 0.061 | 1.91 ± 0.027 | 1.765 ± 0.0096 | 0.381 ± 0.023 |
| GUAGGG | 0.143 ± 0.034 | 1.86 ± 0.055 | 1.49 ± 0.037 | 0.5302 ± 0.0037 |
| GUAGGU | 0.5146 ± 0.0047 | 1.95 ± 0.02 | 1.79 ± 0.034 | 0.578 ± 0.11 |
